# Experimental data taken from PMC6002036, “Characterization of a non-nudix pyrophosphatase points to interplay between flavin and NAD(H) homeostasis in Saccharomyces cerevisiae” (PLoS ONE, 2018).
# B1: Fpy1p (protein encoded by YMR178w), recombinant with V5 epitope and 6xHis tag (enzyme, S. cerevisiae, UniProt Q03219 1-274, looked up)
# chain: MVKVTAACIIIGDEVLNGKVVDTNSTFFAKYCFDHGIQLKEIATIGDDETQIVDTVRRLVKNYDFIISTGGIGPTHDDITYECMAKSFNLPCELDEECKERMRHKSDPEARLDADALKAHYQMATMPKGTNVKNYYVCDDLWVPICSISHKMYILPGIPQLFARMLKAFTPTLKKIYNLDKDPREYVRYFVRTHLTESQISKELKLIQDESTKVSEAIKIGSYPHFGMGFNTVSILGEKKDDSYLKSIVNRVVNNLEGEVISSELENKFSNQES
# notes: Fpy1p, the pyrophosphatase encoded by ORF YMR178w of S. cerevisiae; whole open reading frame without the stop codon, amplified from the start codon; also called YMR178wp; source: S. cerevisiae strain Y258 (pYES-DEST52, galactose induction), purified (two-step IMAC: Cu2+ then Ni2+)
# Tests used:
# [1] = biological target: the molecule itself; assay: SEC; gel filtration on Superdex 200 10/300 in 50 mM potassium phosphate pH 7.5, 150 mM KCl, 100 mM L-arginine HCl, 0.1% Tween-20, 1 mM THP; calibrated with standards of 12.4-200 kDa; Fpy1p detected in fractions by enzymatic assay
# [2] = substrate: Cc1cc2nc3c(=O)[nH]c(=O)nc-3n(C[C@H](O)[C@H](O)[C@H](O)COP(=O)(O)OP(=O)(O)OC[C@H]3O[C@@H](n4cnc5c(N)ncnc54)[C@H](O)[C@@H]3O)c2cc1C; assay: HPLC fluorescence of FMN product, Michaelis-Menten fit; type: biochemical, Saccharomyces cerevisiae; conditions: 4 mM CoCl2, 200 mM KCl, 100 mM Hepes-KOH pH 7.0, 30 °C
# Source text: HPLC fluorescence of FMN product, Michaelis-Menten fit on Fpy1p
protein,measurement,setting,value
B1,stoichiometry N,[1],3
same,Km,[2],16.1 ± 2.1 µM
same,kcat,[2],0.38 s⁻¹
same,kcat/Km,[2],23000 M⁻¹ s⁻¹
